# Measured values reported in US20250011468A1 (Novo Nordisk, published 2025).
# B1: mAb4-6934 (monovalent one-armed variant of mAb1-6723) (antibody, V domains shown)
# VH: EVQLVQSGAEVKKPGESLRISCKGSGYSFTTSWIVWVRQMPGKGLEWMGMIDPSDSFTSYSPSFQGHVTISADKSISTAYLQWSSLKASDTAMYYCARLHYYHSEEFDVWGQGTLVTVSS
# VL: EIVLTQSPGTLSLSPGERATLSCRASQSVSSSYLAWYQQKPGQAPRLLIYGASSRARGIPDRFSGSGSGTDFTLTISRLEPEDFAVYYCQQFGSSRLFTFGQGTKLEIK
# notes: also called monovalent mAb1-6723
# B2: mAb3-3279 (monovalent one-armed variant of mAb1-1307) (antibody, V domains shown)
# VH: EVQLVESGGGLVQPGRSLRLSCAASGFTFGDYAMHWVRQAPGKGLEWVSGISWNSGSIGYADSVKGRFTISRDNAKNSLYLQMNSLRAEDTALYYCAKGQYDEDAGMDVWGQGTTVTVSS
# VL: DIQMTQSPSSLSASVGDRVTITCRASQSISSYLNWYQQKPGKAPKLLIYAASSLQSGVPSRFSGSGSGTDFTLTISSLQPEDFATYYCQQGYPTWTFGGGTKVEIK
# What was measured:
# desGla-desEGF1-FX T116A = desGla-desEGF1-FX T116A (human, UniProt P00742 126-488); assay: SPR (Biacore T200), antibody captured by anti-hIgG Fc, FX variant injected; % of wild-type binding
# Chain of desGla-desEGF1-FX T116A (P00742 other isoform, or with tags, fused parts or gaps T116A T116A): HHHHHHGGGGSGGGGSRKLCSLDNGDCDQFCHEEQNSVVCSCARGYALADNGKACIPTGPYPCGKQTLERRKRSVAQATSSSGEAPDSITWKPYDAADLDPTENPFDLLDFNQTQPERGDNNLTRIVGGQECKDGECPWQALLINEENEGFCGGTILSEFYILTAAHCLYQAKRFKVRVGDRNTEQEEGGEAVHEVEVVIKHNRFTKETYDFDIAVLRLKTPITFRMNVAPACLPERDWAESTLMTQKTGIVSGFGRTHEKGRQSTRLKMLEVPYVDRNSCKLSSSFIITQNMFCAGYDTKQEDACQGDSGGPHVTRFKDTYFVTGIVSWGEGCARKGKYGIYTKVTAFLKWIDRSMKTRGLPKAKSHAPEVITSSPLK
# desGla-desEGF1-FX A118S = desGla-desEGF1-FX A118S (human, UniProt P00742 126-488); assay: as above
# Chain of desGla-desEGF1-FX A118S (P00742 other isoform, or with tags, fused parts or gaps A118S A118S): as the sequence (P00742 other isoform, or with tags, fused parts or gaps T116A T116A) above, with A47T, A49S counted along it
# desGla-desEGF1-FX T127A = desGla-desEGF1-FX T127A (human, UniProt P00742 126-488); assay: as above
# Chain of desGla-desEGF1-FX T127A (P00742 other isoform, or with tags, fused parts or gaps T127A T127A): as the sequence (P00742 other isoform, or with tags, fused parts or gaps T116A T116A) above, with A47T, T58A counted along it
# desGla-desEGF1-FX S227A = desGla-desEGF1-FX S227A (human, UniProt P00742 126-488); assay: as above
# Chain of desGla-desEGF1-FX S227A (P00742 other isoform, or with tags, fused parts or gaps S227A S227A): as the sequence (P00742 other isoform, or with tags, fused parts or gaps T116A T116A) above, with A47T, S158A counted along it
# desGla-desEGF1-FX E228A = desGla-desEGF1-FX E228A (human, UniProt P00742 126-488); assay: as above
# Chain of desGla-desEGF1-FX E228A (P00742 other isoform, or with tags, fused parts or gaps E228A E228A): as the sequence (P00742 other isoform, or with tags, fused parts or gaps T116A T116A) above, with A47T, E159A counted along it
# desGla-desEGF1-FX F229A = desGla-desEGF1-FX F229A (human, UniProt P00742 126-488); assay: as above
# Chain of desGla-desEGF1-FX F229A (P00742 other isoform, or with tags, fused parts or gaps F229A F229A): as the sequence (P00742 other isoform, or with tags, fused parts or gaps T116A T116A) above, with A47T, F160A counted along it
# desGla-desEGF1-FX E266A = desGla-desEGF1-FX E266A (human, UniProt P00742 126-488); assay: as above
# desGla-desEGF1-FX R287A = desGla-desEGF1-FX R287A (human, UniProt P00742 126-488); assay: as above
# desGla-desEGF1-FX E305A = desGla-desEGF1-FX E305A (human, UniProt P00742 126-488); assay: as above
# Chain of desGla-desEGF1-FX E305A (P00742 other isoform, or with tags, fused parts or gaps E305A E305A): as the sequence (P00742 other isoform, or with tags, fused parts or gaps T116A T116A) above, with A47T, E236A counted along it
# desGla-desEGF1-FX L419A = desGla-desEGF1-FX L419A (human, UniProt P00742 126-488); assay: as above
# desGla-desEGF1-FX K420A = desGla-desEGF1-FX K420A (human, UniProt P00742 126-488); assay: as above
# desGla-desEGF1-FX T428A = desGla-desEGF1-FX T428A (human, UniProt P00742 126-488); assay: as above
# Chain of desGla-desEGF1-FX T428A (P00742 other isoform, or with tags, fused parts or gaps T428A T428A): as the sequence (P00742 other isoform, or with tags, fused parts or gaps T116A T116A) above, with A47T, T359A counted along it
# [1] = target: T1, wild-type desGla-desEGF1-FX (human, UniProt P00742 126-488); assay: as above
# T1 construct: Expressed in HEK293; also called WT; desGLA-desEGF1-hFX
# T1 sequence (P00742 other isoform, or with tags, fused parts or gaps): as the sequence (P00742 other isoform, or with tags, fused parts or gaps T116A T116A) above, with A47T counted along it
# desGla-desEGF1-FX H101A = desGla-desEGF1-FX H101A (human, UniProt P00742 126-488); assay: as above
# Chain of desGla-desEGF1-FX H101A (P00742 other isoform, or with tags, fused parts or gaps H101A H101A): as the sequence (P00742 other isoform, or with tags, fused parts or gaps T116A T116A) above, with H32A, A47T counted along it
# desGla-desEGF1-FX E103A = desGla-desEGF1-FX E103A (human, UniProt P00742 126-488); assay: as above
# Chain of desGla-desEGF1-FX E103A (P00742 other isoform, or with tags, fused parts or gaps E103A E103A): as the sequence (P00742 other isoform, or with tags, fused parts or gaps T116A T116A) above, with E34A, A47T counted along it
# desGla-desEGF1-FX R113A = desGla-desEGF1-FX R113A (human, UniProt P00742 126-488); assay: as above
# desGla-desEGF1-FX Y230A = desGla-desEGF1-FX Y230A (human, UniProt P00742 126-488); assay: SPR (Biacore T200), antibody captured by anti-hIgG Fc, FX variant injected (10 µM); % of wild-type binding
# Description: Identification of hot-spot epitope residues was done using a Biacore T200 instrument at 25° C. Anti-hIgG Fc antibody from the Human Antibody Capture Kit (GE Healthcare, Catalogue #BR100839) at 2 μg/ml was immobilized on a Series S Sensor Chip CM5 (GE Healthcare, Catalogue #BR100530) using standard amine coupling chemistry. The anti-FX antibody mAb4-6934 (monovalent variant of mAb1-6723) was injected at the flow rate of 5 μL/min for 30 sec and captured by the immobilized anti-hIgG Fc antibody. […] Binding data were analyzed using steady-state fitting according to the 1:1 model in the Biacore Evaluation Software 2.0 supplied by GE Healthcare. Binding data are reported as % binding of FX variants to the anti-FX antibody (monovalent mAb1-6723) relative to binding of the wild-type FX to the anti-FX antibody at 5 or 10 μM FX variants injected and are calculated according to the formula: […]
# [2] = target: T2, wild-type FIX with C-terminal His-tag (human, UniProt P00740 47-461); assay: SPR (Biacore T200), His-tagged FIX captured by anti-His antibody, one-armed antibody as analyte; % of wild-type binding
# T2 construct: Secreted mature FIX from expi293F cells; also called WT
# T2 sequence (P00740 other isoform, or with tags, fused parts or gaps limits assumed): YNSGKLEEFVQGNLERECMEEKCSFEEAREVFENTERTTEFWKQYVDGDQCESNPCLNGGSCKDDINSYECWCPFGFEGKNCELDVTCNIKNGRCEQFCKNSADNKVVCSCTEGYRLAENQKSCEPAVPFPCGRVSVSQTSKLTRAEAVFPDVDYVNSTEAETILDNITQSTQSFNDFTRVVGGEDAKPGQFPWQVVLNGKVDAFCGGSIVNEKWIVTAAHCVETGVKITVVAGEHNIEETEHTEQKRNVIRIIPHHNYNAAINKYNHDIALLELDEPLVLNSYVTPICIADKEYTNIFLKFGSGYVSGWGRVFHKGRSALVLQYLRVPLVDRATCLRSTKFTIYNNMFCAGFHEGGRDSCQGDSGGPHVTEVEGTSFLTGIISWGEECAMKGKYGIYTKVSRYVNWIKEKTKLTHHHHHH
# Description: (§1) SPR analyses were carried out on Biacore 4000 or Biacore T200 instruments (Biacore AB, Uppsala, Sweden). For the experiments on the T200 instrument the following conditions were applied: measurements were conducted at a temperature of 25° C. Anti-His antibody at 25 μg/ml (R&D Systems, catalogue #MAB050) was immobilized on a CM5 sensor chip using standard amine coupling chemistry. […] at 25 nM were injected at a flow rate of 10 μl/min for 1 min and were captured via their His-tag by the immobilized anti-His antibody. Subsequently, 200 nM (with 4-fold serial dilutions), 1600 nM (with 3-fold serial dilutions), and 2000 nM (with 3-fold serial dilution) of mAb4-0004, mAb3-3279 and mAb4-0673, respectively, were injected at a flow rate of 50 μl/min for 5 min to allow for binding to captured FIX variant followed by a 10 min buffer injection allowing for dissociation of the monovalent anti-FIX antibodies. The running buffer used was 20 mM Tris, 150 mM NaCl, 5 mM CaCl₂, 0.05% Tween-20, 1 mg/ml BSA, pH 7.4. This was also used for dilution of anti-FIX antibody and FIX samples. Regeneration of the chip was achieved using 10 mM Glycine pH 2.0. Binding data were analysed according to a 1:1 model using BiaEvaluation 4.1 supplied by the manufacturer (Biacore AB, Uppsala, Sweden). A similar experimental set-up was used for the Biacore 4000 instrument.
# [3] = target: FIX H256A with C-terminal His-tag (human, UniProt P00740 47-461); assay: SPR (Biacore T200), His-tagged FIX variant captured by anti-His antibody, one-armed antibody as analyte; % of wild-type binding
# Description: as §1
# (§2) A more detailed binding analysis was conducted for residues defined as epitope residues (see example 6) using the Biacore T200 instrument.
# [4] = target: FIX H257A with C-terminal His-tag (human, UniProt P00740 47-461); assay: as above
# Description: as §1, §2
# [5] = target: FIX N258A with C-terminal His-tag (human, UniProt P00740 47-461); assay: as above
# Description: as §1, §2
# [6] = target: FIX K293A with C-terminal His-tag (human, UniProt P00740 47-461); assay: as above
# Description: as §1, §2
# [7] = target: FIX R403A with C-terminal His-tag (human, UniProt P00740 47-461); assay: as above
# Description: as §1, §2
# [8] = target: FIX Y404F with C-terminal His-tag (human, UniProt P00740 47-461); assay: as above
# Description: as §1, §2
# [9] = target: FIX N406A with C-terminal His-tag (human, UniProt P00740 47-461); assay: as above
# Description: as §1, §2
# [10] = target: FIX E410Q with C-terminal His-tag (human, UniProt P00740 47-461); assay: as above
# Description: as §1, §2
# [11] = target: FIX K411A with C-terminal His-tag (human, UniProt P00740 47-461); assay: as above
# Description: as §1, §2
binder,measurement,setting,value
B1,Binding (%) relative to wild-type,desGla-desEGF1-FX T116A,114%
same,Binding (%) relative to wild-type,desGla-desEGF1-FX A118S,102%
same,Binding (%) relative to wild-type,desGla-desEGF1-FX T127A,113%
same,Binding (%) relative to wild-type,desGla-desEGF1-FX S227A,66%
same,Binding (%) relative to wild-type,desGla-desEGF1-FX E228A,80%
same,Binding (%) relative to wild-type,desGla-desEGF1-FX F229A,99%
same,Binding (%) relative to wild-type,desGla-desEGF1-FX E266A,112%
same,Binding (%) relative to wild-type,desGla-desEGF1-FX R287A,66%
same,Binding (%) relative to wild-type,desGla-desEGF1-FX E305A,97%
same,Binding (%) relative to wild-type,desGla-desEGF1-FX L419A,50%
same,Binding (%) relative to wild-type,desGla-desEGF1-FX K420A,23%
same,Binding (%) relative to wild-type,desGla-desEGF1-FX T428A,81%
same,Binding (%) relative to wild-type,[1],100%
same,Binding (%) relative to wild-type,desGla-desEGF1-FX H101A,51%
same,Binding (%) relative to wild-type,desGla-desEGF1-FX E103A,71%
same,Binding (%) relative to wild-type,desGla-desEGF1-FX R113A,28%
same,Binding (%) relative to wild-type,desGla-desEGF1-FX Y230A,1%
B2,Binding (%) relative to wild-type,[2],100%
same,Binding (%) relative to wild-type,[3],32%
same,Binding (%) relative to wild-type,[4],8%
same,Binding (%) relative to wild-type,[5],82%
same,Binding (%) relative to wild-type,[6],23%
same,Binding (%) relative to wild-type,[7],94%
same,Binding (%) relative to wild-type,[8],76%
same,Binding (%) relative to wild-type,[9],12%
same,Binding (%) relative to wild-type,[10],39%
same,Binding (%) relative to wild-type,[11],71%
